Literature values, collected in paper PMC3476528.

Biological target: histone H3 (Homo sapiens) (UniProt P68431)

Chain of CHD4 PHD2 (Q14839 449-496): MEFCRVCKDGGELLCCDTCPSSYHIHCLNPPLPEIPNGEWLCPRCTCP

CHD4 PHD2 (from UniProt Q14839)
Kd: 18 µM
